Our source for the EC50 [nM], 0% HSA values is patent US12679878B2, “CRF2 receptor agonists and their use in therapy” (SANOFI, priority 2020, dated 2026).

Starred links: 1 amine or outer side, 2 acyl side, 3 side chain; linkers in the order of their positions; H or OH if unused. Non-standard residues stand in square brackets, D forms with d. Groups on a side chain read outwards from the residue. No end group written: not given here. *: point of attachment. C18 diacid = O=C(O)CCCCCCCCCCCCCCCCC(=O)*; γGlu = O=C(O)[C@H](CCC(=O)[*:2])N[*:1]; AEEA = NCCOCCOCC(=O)O; Aib = CC(C)(N)C(=O)O

The experiment addresses human corticotropin-releasing factor 2α (CRF2 α receptor) (human), Q13324. Nature of the experiment: cell-based or functional assay.

Chain of human corticotropin-releasing factor 2α (CRF2 α receptor) (human), Q13324 (Q13324 20-411): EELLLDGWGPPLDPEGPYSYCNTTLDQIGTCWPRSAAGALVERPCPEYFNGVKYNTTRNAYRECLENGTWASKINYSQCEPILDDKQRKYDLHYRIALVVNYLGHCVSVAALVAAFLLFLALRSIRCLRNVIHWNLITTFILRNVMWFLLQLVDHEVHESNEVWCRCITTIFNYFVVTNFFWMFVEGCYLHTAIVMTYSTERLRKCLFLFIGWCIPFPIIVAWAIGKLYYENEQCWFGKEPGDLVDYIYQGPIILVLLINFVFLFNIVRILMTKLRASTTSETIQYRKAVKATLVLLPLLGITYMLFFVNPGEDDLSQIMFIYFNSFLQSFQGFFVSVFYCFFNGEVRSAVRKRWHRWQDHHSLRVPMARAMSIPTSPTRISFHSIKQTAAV

B1: SEQ ID NO: 42 (peptide)
peptide: IVLSLDVPIKLK([AEEA-AEEA-γGlu-C18 diacid])QILLEQERQR[Aib]ERQQAEKNVRILERV-NH2
modifications: N-terminus assumed
SMILES: CC[C@H](C)[C@H](N)C(=O)N[C@H](C(=O)N[C@@H](CC(C)C)C(=O)N[C@@H](CO)C(=O)N[C@@H](CC(C)C)C(=O)N[C@@H](CC(=O)O)C(=O)N[C@H](C(=O)N1CCC[C@H]1C(=O)N[C@H](C(=O)N[C@@H](CCCCN)C(=O)N[C@@H](CC(C)C)C(=O)N[C@@H](CCCCNC(=O)COCCOCCNC(=O)COCCOCCNC(=O)CC[C@H](NC(=O)CCCCCCCCCCCCCCCCC(=O)O)C(=O)O)C(=O)N[C@@H](CCC(N)=O)C(=O)N[C@H](C(=O)N[C@@H](CC(C)C)C(=O)N[C@@H](CC(C)C)C(=O)N[C@@H](CCC(=O)O)C(=O)N[C@@H](CCC(N)=O)C(=O)N[C@@H](CCC(=O)O)C(=O)N[C@@H](CCCNC(=N)N)C(=O)N[C@@H](CCC(N)=O)C(=O)N[C@@H](CCCNC(=N)N)C(=O)NC(C)(C)C(=O)N[C@@H](CCC(=O)O)C(=O)N[C@@H](CCCNC(=N)N)C(=O)N[C@@H](CCC(N)=O)C(=O)N[C@@H](CCC(N)=O)C(=O)N[C@@H](C)C(=O)N[C@@H](CCC(=O)O)C(=O)N[C@@H](CCCCN)C(=O)N[C@@H](CC(N)=O)C(=O)N[C@H](C(=O)N[C@@H](CCCNC(=N)N)C(=O)N[C@H](C(=O)N[C@@H](CC(C)C)C(=O)N[C@@H](CCC(=O)O)C(=O)N[C@@H](CCCNC(=N)N)C(=O)N[C@H](C(N)=O)C(C)C)[C@@H](C)CC)C(C)C)[C@@H](C)CC)[C@@H](C)CC)C(C)C)C(C)C
Consider B1, for which the EC50 [nM], 0% HSA stood at 15.4 nM.

B2: SEQ ID NO: 43 (peptide)
peptide: IVLSLDVPIKLK([AEEA-AEEA-γGlu-C18 diacid])QILLEQAKQKKLRAQAETNVRILERV-NH2
modifications: N-terminus assumed
SMILES: CC[C@H](C)[C@H](N)C(=O)N[C@H](C(=O)N[C@@H](CC(C)C)C(=O)N[C@@H](CO)C(=O)N[C@@H](CC(C)C)C(=O)N[C@@H](CC(=O)O)C(=O)N[C@H](C(=O)N1CCC[C@H]1C(=O)N[C@H](C(=O)N[C@@H](CCCCN)C(=O)N[C@@H](CC(C)C)C(=O)N[C@@H](CCCCNC(=O)COCCOCCNC(=O)COCCOCCNC(=O)CC[C@H](NC(=O)CCCCCCCCCCCCCCCCC(=O)O)C(=O)O)C(=O)N[C@@H](CCC(N)=O)C(=O)N[C@H](C(=O)N[C@@H](CC(C)C)C(=O)N[C@@H](CC(C)C)C(=O)N[C@@H](CCC(=O)O)C(=O)N[C@@H](CCC(N)=O)C(=O)N[C@@H](C)C(=O)N[C@@H](CCCCN)C(=O)N[C@@H](CCC(N)=O)C(=O)N[C@@H](CCCCN)C(=O)N[C@@H](CCCCN)C(=O)N[C@@H](CC(C)C)C(=O)N[C@@H](CCCNC(=N)N)C(=O)N[C@@H](C)C(=O)N[C@@H](CCC(N)=O)C(=O)N[C@@H](C)C(=O)N[C@@H](CCC(=O)O)C(=O)N[C@H](C(=O)N[C@@H](CC(N)=O)C(=O)N[C@H](C(=O)N[C@@H](CCCNC(=N)N)C(=O)N[C@H](C(=O)N[C@@H](CC(C)C)C(=O)N[C@@H](CCC(=O)O)C(=O)N[C@@H](CCCNC(=N)N)C(=O)N[C@H](C(N)=O)C(C)C)[C@@H](C)CC)C(C)C)[C@@H](C)O)[C@@H](C)CC)[C@@H](C)CC)C(C)C)C(C)C
B2 came in with an EC50 [nM], 0% HSA of 1.9 nM.
